Assay results published in patent publication US20140178329A1 (INSTITUCIO CATALANA DE RECERCA I ESTUDIS AVANCATS ICREA, published 2014).
Where a chain is given by its changes, count along the chain named. In names and notes the source's numbering stands. One block for each binder: values may come before it.

How the values were obtained:
human BCMA-Fc [1] = molecular target: T1, human BCMA-Fc (human, UniProt Q02223 2-54, limits assumed); assay: binding test not named (data not shown)
T1 construct: Generated in-house; not shown: Fc portion of human IgG1
T1 sequence (looked up): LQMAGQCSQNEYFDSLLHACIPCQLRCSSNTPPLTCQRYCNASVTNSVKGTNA

human TACI-Fc [2] = molecular target: T2, human TACI-Fc (human, UniProt O14836 2-160, limits assumed); assay: binding test not named (data not shown)
T2 construct: Generated in-house; not shown: Fc portion of human IgG1
T2 sequence (looked up): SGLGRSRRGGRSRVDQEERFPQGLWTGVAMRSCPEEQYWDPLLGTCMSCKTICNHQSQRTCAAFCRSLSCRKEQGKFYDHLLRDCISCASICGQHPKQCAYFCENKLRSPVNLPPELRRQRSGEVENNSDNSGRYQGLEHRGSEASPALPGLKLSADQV

[3] = molecular target: T3, mouse BCMA-Fc (R&D Systems) (mouse; human, UniProt O88472 2-49, limits assumed); assay: SPR (Biacore 2000), FLAG-APRIL captured by anti-FLAG M2, receptor-Fc injected, single cycle kinetics, 1:1 fit
T3 construct: Bought; also called mBCMA-Fc; murine BCMA-Fc; not shown: Fc portion of human IgG1
T3 chain (looked up): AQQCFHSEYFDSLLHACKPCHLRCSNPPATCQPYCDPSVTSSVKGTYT
Protocol: (§1) FIG. 10: Surface Plasmon Resonance sensorgrams to illustrate binding of TACI-Fc and BCMA-Fc to WT and R206E-APRIL. Sensorgrams of human (Panel A) and mouse (Panel B) receptors binding to WT and R206E-APRIL. Stepwise increments in the curves represent sequential injections of receptor at the following concentrations: […]. In some cases, no value for affinity was calculated due to a low binding response or high drift.
(§2) In order to further assess the binding properties of the mutants and to measure apparent affinities and kinetics of receptor binding, a Surface Plasmon Resonance based receptor binding assay was performed on a Biacore 2000 (GE Healthcare, Diegem, Belgium). Anti-FLAG-M2 monoclonal antibody (Sigma-Aldrich) was diluted at a concentration of 5 μg/ml in 10 mM sodium acetate pH 4.5 and covalently immobilized (approx 1500 RU) to a CM-5 sensor chip (GE Healthcare), using standard amine coupling chemistry according to manufacturer's guidelines (Amine coupling kit, GE Healthcare). The different FLAG-APRIL variants in the form of tissue culture supernatants were captured onto the chip via the FLAG-tag at 10 μl/minute for five minutes, giving capture levels ranging from 159 to 207 RU. As a reference lane, one of the flow cells was left free of soluble FLAG-APRIL, to control for any background binding. BCMA- or TACI-Fc were then injected for three minutes over all four flow cells at 30 μl/minutes at increasing concentrations (ranging from 1-50 nM) using the single cycle kinetics method at 25° C. Dissociation was monitored for five minutes. The resulting curves were fitted using a 1:1 Langmuir model using BIAevaluation software 4.1. For each combination of FLAG-APRIL and BCMA- or TACI-Fc, the apparent kₐ, kd and KD were calculated from a global fit of binding curves from at least three separate experiments. Non-specific binding in the reference cell was subtracted before curve fitting. Regeneration of the anti-FLAG antibody surface was carried out with a 10-minute injection at 30 μl/minute of a mixture of ⅓ volume of TBS pH 11.5, ⅓ volume of Ionic solution and ⅓ volume of water. The Ionic solution was comprised of KSCN (0.46 M), MgCl₂ (1.83 M), urea (0.92 M) and guanidine-HCl (1.83 M).

human BCMA-Fc [4] = molecular target: T1, human BCMA-Fc; assay: as above
Protocol: as §1, §2

human TACI-Fc [5] = molecular target: T2, human TACI-Fc; assay: SPR (Biacore 2000), FLAG-APRIL captured by anti-FLAG M2, receptor-Fc injected, single cycle kinetics, 1:1 fit; SPR (BIAcore), mean ± error of fits; weak but measurable binding
Protocol: as §1
as §2, with “Regeneration of the anti-FLAG antibody surface was carried out with a 10-minute injection at 30 μl/minute of a mixture of ⅓ volume of TBS pH 11.5, ⅓ volume of Ionic solution and ⅓ volume of water. The Ionic solution was comprised of KSCN (0.46 M), MgCl₂ (1.83 M), urea (0.92 M) and guanidine-HCl (1.83 M).” left out

human BCMA-Fc [6] = molecular target: T1, human BCMA-Fc; assay: SPR (Biacore), affinities of R206E for BCMA-Fc and TACI-Fc compared
Protocol: as §1
In order to further assess the binding properties of the mutants and to measure apparent affinities and kinetics of receptor binding, a Surface Plasmon Resonance based receptor binding assay was performed on a Biacore 2000 (GE Healthcare, Diegem, Belgium). Anti-FLAG-M2 monoclonal antibody (Sigma-Aldrich) was diluted at a concentration of 5 μg/ml in 10 mM sodium acetate pH 4.5 and covalently immobilized (approx 1500 RU) to a CM-5 sensor chip (GE Healthcare), using standard amine coupling chemistry according to manufacturer's guidelines (Amine coupling kit, GE Healthcare). […] Dissociation was monitored for five minutes. […] For each combination of FLAG-APRIL and BCMA- or TACI-Fc, the apparent kₐ, kd and KD were calculated from a global fit of binding curves from at least three separate experiments. […]

human BCMA-Fc [7] = molecular target: T1, human BCMA-Fc; assay: receptor-binding ELISA, human BCMA-Fc coated, doubling dilutions of conditioned medium [BCMA-Fc coating]
Protocol: (§3) FIG. 2: Production and real binding properties of the APRIL mutants. (Panel A) Production of APRIL variants in conditioned medium by transient transfection of 293T cells. Supernatants (10 μl of each) were analyzed by anti-FLAG immunoblotting. Upper panel: mutants predicted to be selective for BCMA. Lower panel: mutants predicted to be selective for TACI. All mutants were checked more than three times following independent rounds of transfection to assess their expression. (Panels B and C) Receptor binding ELISA to compare binding of the predicted BCMA- and TACI-specific APRIL variants to human BCMA-Fc and TACI-Fc. Bars, from left to right, represent doubling dilutions of the conditioned media starting from undiluted media. Relevant APRIL variants are shown with dark grey bars, WT APRIL with black bars and other variants with light grey bars. This is representative of three separate experiments performed with independent APRIL-containing cell-conditioned media.
(§4) The relative binding of the variants to either BCMA or TACI, was tested using a binding ELISA. […] Bound APRIL was detected with 1 μg/ml of HRP-coupled anti-FLAG M2 and visualized with 2,2′-azino-bis(3-ethylbenzothiazoline-6-sulphonic acid (ABTS) (Sigma-Aldrich). The absorbance was read at 405 nm using a UV-VIS microplate reader (BioRad, Veenendaal, The Netherlands).

[8] = molecular target: T3, mouse BCMA-Fc (R&D Systems); assay: receptor-binding ELISA, mouse BCMA-Fc coated [TACI selective, Ms BCMA-Fc coated]
Protocol: (§5) The relative binding of the variants to either BCMA or TACI, was tested using a binding ELISA. The following proteins were used: human BCMA-Fc, human TACI-Fc (both generated in-house), mouse BCMA-Fc (R&D Systems, Abingdon, UK), mouse TACI-Fc (R&D Systems); in all cases the Fc portion is from human IgG1. BCMA-Fc and TACI-Fc were coated on 96-well Nunc Maxisorp plates (Thermo Fischer Scientific, Roskilde, Denmark) at concentrations of 1 μg/ml and 2 μg/ml, respectively, in 0.5 M sodium bicarbonate buffer pH 9.5, overnight at 4° C. Plates were then blocked with 5% BSA for one hour at 37° C. Soluble APRIL variants in the form of tissue culture conditioned medium were then added to the plate for two hours at 37° C. Following APRIL binding, plates were washed three times with PBS, 0.05% TWEEN®20. Bound APRIL was detected with 1 μg/ml of HRP-coupled anti-FLAG M2 and visualized with 2,2′-azino-bis(3-ethylbenzothiazoline-6-sulphonic acid (ABTS) (Sigma-Aldrich). The absorbance was read at 405 nm using a UV-VIS microplate reader (BioRad, Veenendaal, The Netherlands).

[9] = molecular target: T4, mouse TACI-Fc (R&D Systems) (mouse; human, UniProt Q9ET35 5-129, limits assumed); assay: receptor-binding ELISA, mouse TACI-Fc coated [TACI selective, Ms TACI-Fc coated]
T4 construct: Bought; also called mTACI-Fc; murine TACI-Fc; not shown: Fc portion of human IgG1
T4 sequence (looked up): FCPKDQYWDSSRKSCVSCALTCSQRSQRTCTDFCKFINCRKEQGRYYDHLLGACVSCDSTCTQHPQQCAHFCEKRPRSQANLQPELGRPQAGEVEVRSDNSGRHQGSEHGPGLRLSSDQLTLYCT
Protocol: as §5

human TACI-Fc [10] = molecular target: T2, human TACI-Fc; assay: receptor-binding ELISA, human TACI-Fc coated, doubling dilutions of conditioned medium [TACI-Fc coating]
Protocol: as §3, §4

binding result (human BCMA-Fc [1]): no binding
binding result (human TACI-Fc [2]): no binding
B3: APRIL T175D-R206E double mutant (ligand)
chain: AVLTQKQKKQHSVLHLVPINATSKDDSDVTEVMWQPALRRGRGLQAQGYGVRIQDAGVYLLYSQVLFQDVDFTMGQVVSREGQGRQETLFRCIRSMPSHPDEAYNSCYSAGVFHLHQGDILSVIIPRARAKLNLSPHGTFLGFVKL
notes: not shown: FLAG tag

binding result (human BCMA-Fc [1]): no binding
binding result (human TACI-Fc [2]): no binding
B4: APRIL T175D-D205Y double mutant (ligand)
chain: B3 chain with D101Y, E102R
notes: also called T175D-D205Y/K; not shown: FLAG tag

binding result [8]: no binding
binding result [9]: no binding
B5: APRIL-R231A (FLAG-tagged soluble variant) (ligand)
chain: B3 chain with D71T, E102R, R127A
notes: also called receptor-dead R231A variant; not shown: FLAG tag
binding result (human BCMA-Fc [7]): no binding (tested: undiluted conditioned medium)
binding result (human TACI-Fc [10]): no binding (tested: undiluted conditioned medium)

Further lines, the binder ahead of its results:

B1: APRIL T175D-D205K double mutant (ligand)
chain: B3 chain with D101K, E102R
notes: as for B4
binding result (human BCMA-Fc [1]): no binding
binding result (human TACI-Fc [2]): no binding

B2: APRIL-R206E (FLAG-tagged soluble variant) (ligand)
chain: B3 chain with D71T
notes: Used as conditioned medium; also called R206E-APRIL; not shown: FLAG tag
Kd [3]: 0.095 nM
koff [3]: 0.00015 s⁻¹
kon [3]: 1.6e+06 M⁻¹ s⁻¹
Kd (human BCMA-Fc [4]): 0.46 nM
koff (human BCMA-Fc [4]): 0.00015 s⁻¹
kon (human BCMA-Fc [4]): 330000 M⁻¹ s⁻¹
Kd (human TACI-Fc [5]): 11 nM
koff (human TACI-Fc [5]): 0.01 s⁻¹
kon (human TACI-Fc [5]): 2e+06 M⁻¹ s⁻¹
fold selectivity for BCMA over TACI (comparison of affinities) (human BCMA-Fc [6]): 25 fold
